B1: Nanog (endogenous, mouse embryonic stem cells) (other, UniProt Q80Z64 1-305, looked up)
chain: MSVGLPGPHSLPSSEEASNSGNASSMPAVFHPENYSCLQGSATEMLCTEAASPRPSSEDLPLQGSPDSSTSPKQKLSSPEADKGPEEEENKVLARKQKMRTVFSQAQLCALKDRFQKQKYLSLQQMQELSSILNLSYKQVKTWFQNQRMKCKRWQKNQWLKTSNGLIQKGSAPVEYPSIHCSYPQGYLVNASGSLSMWGSQTWTNPTWSSQTWTNPTWNNQTWTNPTWSSQAWTAQSWNGQPWNAAPLHNFGEDFLQPYVQLQQNFSASDLEVNLEATRESHAHFSTPQALELFLNYSVTPPGEI

Tests used:
[1] = target: T1, Ash2l (endogenous, in nuclear extracts of mouse embryonic stem cells) (mouse, UniProt Q91X20 1-623, limits assumed); assay: co-IP from gel filtration fraction 1 of ESC nuclear extract; also fraction 3 after Wdr5 knockdown (Ash2l still interacted with OSN)
T1 construct: Endogenous protein in gel filtration fractions of ESC nuclear extracts or on ESC chromatin
Protocol: (§1) For samples from gel filtration, we used Centricon (Millipore) to concentrate and desalt the fraction of elute. Cleared sample solution was obtained by centrifugation at 12 000 rpm for 30 min at 4° C., and 0.5-1.5 mg of the sample was used for immunoprecipitations. For identify interacting complex of Ash2l protein, sample was added into primary antibody for 2 h at […] followed by 2 h of further incubation with protein A/G-Sepharose beads. After washing three times with the lysis buffer, immunoprecipitated proteins were eluted from the beads by boiling for 5 min in SDS-PAGE sample buffer and analyzed by immunoblotting.
Nuclear extraction was performed according to the manual instruction. Biochemical fractionation of ESC extracts into seven fractions was performed as described previously (Ang et al., 2011). Briefly, ESCs were lysed with lysis buffer and applied onto […] column (HiPrep 16/60 Sephycryl). […]
To further understand the role of Ash2l in stemness regulation, we used gel filtration analysis (FIG. 2A) followed by Western blot to investigate the profiles of molecular complexes in the nuclei of ESCs (FIG. 2B). […] Subsequently, we assessed these OSN-enriched (fraction 1), OSN/WRD-enriched (fraction 3), and WRD-enriched fractions (fraction 4) in an immunoprecipitation assay. […]

[2] = target: T2, Flag-tagged full-length Ash2l (Ash2l-Full length: 1-623) (UniProt Q91X20 1-623); assay: co-IP of Flag-tagged Ash2l constructs from nuclear extracts, Western blot
T2 construct: range 1-623; Expressed in cells for co-IP, ChIP and reporter assays, or purified from E. coli BL21 for in vitro pull-downs; also called Flag-Ash2l^WT; Flag-Ash2l-F; not shown: 3xFlag tag of the p3xFlag plasmid
Protocol: as §1
(§2) To identify the domain(s) of Ash2l responsible for this protein interaction, we constructed expression plasmids for Flag-tagged truncated Ash2l (Ash2l-N-terminus: 1-172, the PHD domain; and Ash2l-C-terminus: 387-623, the SPRY domain) and full-length Ash2l (Ash2l-full length: 1-623; FIG. 2D) for various experiments. First, we overexpressed truncated and full-length Ash2l proteins in HEK293T cells, and subjected the nuclear extracts to immunoprecipitation (FIG. 2E). Rbbp5 associated with full-length Ash2l and Ash2l-C, which is consistent with previous findings (26). Remarkably, Oct4, Sox2, and Nanog associated with full-length Ash2l and Ash2l-N terminus, but not Ash2l-C terminus (FIG. 2E). To further assess the direct protein-protein interaction, Ash2l-N, Ash2l-C, and full-length Ash2l recombinant proteins were purified from bacteria (FIG. 2G) and independently incubated with various recombinant proteins, including Oct4, Sox2 and Nanog, and the p300 (Taz domain) protein. As shown in the in vitro pull-down assays with further analysis using Western blot or Coomassie staining (FIG. 2F and 2G), Ash2l directly interacted with the master stemness factors, Oct4, Sox2, and Nanog through its N terminus (1-172) (FIG. 2F and 2G). We then used the ZDOCK software to simulate the molecular docking between Ash2l and Oct4 and further predicted that several residues at the N terminus of Ash2l, including K117, W118, E180, K190, N217, and K220, may be crucial for the recognition and interaction with Oct4 (FIG. 2H). To determine which residue(s) of Ash2l was important for its interaction with Oct4, we used immunoprecipitation to assess the binding abilities of different Flag-tagged Ash2l mutants (K117A, W118A, E180A, K190A, N217A, and K220A) to Myc-tagged Oct4.

[3] = target: B1; assay: as above
Protocol: as §1, §2

[4] = target: Sox2 (endogenous, mouse embryonic stem cells) (mouse, UniProt P48432 1-319); assay: as above
Protocol: as §1, §2

[5] = target: Oct4 (endogenous, mouse embryonic stem cells) (mouse, UniProt P20263 1-352); assay: as above
Protocol: as §1, §2

Chain of Sox2 (endogenous, mouse embryonic stem cells) (P48432 whole entry): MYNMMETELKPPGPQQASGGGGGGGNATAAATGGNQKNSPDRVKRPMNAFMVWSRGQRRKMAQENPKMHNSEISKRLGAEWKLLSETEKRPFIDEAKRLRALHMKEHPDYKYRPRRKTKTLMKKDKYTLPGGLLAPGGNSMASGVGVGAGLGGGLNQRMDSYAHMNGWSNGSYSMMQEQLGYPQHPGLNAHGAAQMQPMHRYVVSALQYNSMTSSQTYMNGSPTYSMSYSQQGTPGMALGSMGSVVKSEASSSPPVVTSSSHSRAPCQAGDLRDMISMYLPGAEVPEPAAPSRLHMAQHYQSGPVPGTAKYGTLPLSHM
Chain of Oct4 (endogenous, mouse embryonic stem cells) (P20263 whole entry): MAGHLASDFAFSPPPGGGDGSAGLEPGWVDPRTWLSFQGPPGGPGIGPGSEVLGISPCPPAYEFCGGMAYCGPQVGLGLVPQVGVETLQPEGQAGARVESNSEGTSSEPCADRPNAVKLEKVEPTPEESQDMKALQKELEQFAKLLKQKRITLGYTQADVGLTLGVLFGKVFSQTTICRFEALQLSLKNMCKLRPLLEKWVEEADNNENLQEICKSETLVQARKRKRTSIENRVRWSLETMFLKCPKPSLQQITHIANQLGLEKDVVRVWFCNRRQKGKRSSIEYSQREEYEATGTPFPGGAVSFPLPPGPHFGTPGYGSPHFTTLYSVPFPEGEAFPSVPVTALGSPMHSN

| binding result [1] | binding result [2] | binding result [3] | binding result [4] | binding result [5] | Binder |
| --- | --- | --- | --- | --- | --- |
| binds | binds | – | – | – | B1 |
| – | – | binds | binds | binds | Flag-tagged Ash2l-N terminus (1-172, the PHD domain) (other, UniProt Q91X20 1-172, looked up, range 1-172; also called Flag-Ash2l-N; not shown: 3xFlag tag of the p3xFlag plasmid) MAAAGAGPGPGVSAGPGPGAAASATTAEDRETEPVAAGAGEGPSAAPGAEPSSGEAESGDANLVDVSGLETESSNGKDTLEGTGDTSEVMDTQAGSVDEENGRQLGEVELQCGICTKWFTADTFGIDTSSCLPFMTNYSFHCNVCHHSGNTYFLRKQANLKEMCLSALANLT |

— patent US20210102174A1 (TAIPEI VETERANS GENERAL HOSPITAL, published 2021)
